Measurements: article PMC7147772, “Biochemical characterization of the Nocardia lactamdurans ACV synthetase” (PLoS ONE, 2020)

Key:
Experiment in all cases: ACV tripeptide formation, HPLC/MS
Assay type in all cases: biochemical, Amycolatopsis lactamdurans
[1] = test system: CC(C)[C@H](N)C(=O)O; conditions: L-α-Aaa and L-Cys co-substrates, 5 mM ATP, 5 mM MgCl2, 2 mM DTT, CoA and Sfp, pH 7.0, 30 °C, module 3
[2] = test system: N[C@@H](CCCC(=O)O)C(=O)O; conditions: L-Cys and L-Val co-substrates, 5 mM ATP, 5 mM MgCl2, 2 mM DTT, CoA and Sfp, pH 7.0, 30 °C, module 1
[3] = test system: N[C@@H](CS)C(=O)O; conditions: L-α-Aaa and L-Val co-substrates, 5 mM ATP, 5 mM MgCl2, 2 mM DTT, CoA and Sfp, pH 7.0, 30 °C, module 2

Nl ACVS (L-δ-(α-aminoadipoyl)-L-cysteinyl-D-valine synthetase) (Amycolatopsis lactamdurans)
Km [1]: 150 ± 4 µM | Km [2]: 640 ± 16 µM | Km [3]: 40 ± 1 µM
